The target in this test is T1, soluble human CD3ε chain (human, UniProt P07766 23-126, limits assumed).
T1 construct: the text says soluble human CD3ε chain; also called human CD3 epsilon chain
Briefly: SPR (Biacore).

Positions count from the first letter of the chain named.

T1 sequence (P07766 23-126 limits assumed): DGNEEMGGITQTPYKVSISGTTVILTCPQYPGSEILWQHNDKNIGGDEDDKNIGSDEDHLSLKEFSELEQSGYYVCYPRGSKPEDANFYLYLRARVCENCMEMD

B1: TR01H040-E22Hh/none-Hi-Kn010G3/L0220-k0 (antibody, human IgG1, kappa, L234A L235A, N297A)
heavy: QVQLVESGGGLVQPGRSLRLSCAASGFTFSNAWMHWVRQAPGKGLEWVAQIKDKSQNYATYYAESVKGRFTISRADSKNSIYLQMNSLKTEDTAVYYCRYVHYSASYGVDAWGQGTTVTVSSASTKGPSVFPLAPSSKSTSGGTAALGCLVKDYFPEPVTVSWNSGALTSGVHTFPAVLQSSGLYSLSSVVTVPSSSLGTQTYICNVNHKPSNTKVDKKVEPKSCDKTHTCPPCPAPEAAGGPSVFLFPPKPKDTLMISRTPEVTCVVVDVSHEDPEVKFNWYVDGVEVHNAKTKPREEQYASTYRVVSVLTVLHQDWLNGKEYKCKVSNKALPAPIEKTISKAKGQPREPQVYTLPPSRCELTKNQVSLSCAVKGFYPSDIAVEWESNGQPENNYKTTPPVLDSDGSFFLVSKLTVDKSRWQQGNVFSCSVMHEALHNHYTQKSLSLSPDYKDDDDK
chain: EPKSSDKTHTCPPCPAPELLGGPSVFLFPPKPKDTLMISRTPEVTCVVVDVSHEDPEVKFNWYVDGVEVHNAKTKPREEQYNSTYRVVSVLTVLHQDWLNGKEYKCKVSNKALPAPIEKTISKAKGQPREPQVCTLPPSRDELTKNQVSLWCLVKGFYPSDIAVEWESNGQPENNYKTTPPVLDSDGSFFLYSKLTVDKSRWQQGNVFSCSVMHEALHNRYTQKSLSLSP
light: DIVMTQSPLSLPVTPGEPASISCRSSQPLVHSNRNTYLHWYQQKPGQAPRLLIYKVSNRFRGVPDRFSGSGSGTDFTLKISRVEAEDVGVYYCYQGTQVPYTFGQGTKLEIKRTVAAPSVFIFPPSDEQLKSGTASVVCLLNNFYPREAKVQWKVDNALQSGNSQESVTEQDSKDSTYSLSSTLTLSKADYEKHKVYACEVTHQGLSSPVTKSFNRGEC
notes: single-arm
Consider B1, for which the affinity, expressed as Kd, was 9.15 nM.

B2: TR01H040-E22Hh/none-Hi-Kn010G3/L0232-k0 (antibody, human IgG1, kappa, L234A L235A, N297A)
heavy: B1 heavy
chain: B1 chain
light: B1 light with Q27E, P28S, R61S, Y94G
notes: single-arm
The molecule B2 gave a Kd of 38.6 nM.

B3: TR01H040-E22Hh/none-Hi-Kn010G3/L0236-k0 (antibody, human IgG1, kappa, L234A L235A, N297A)
heavy: B1 heavy
chain: B1 chain
light: B1 light with P28E, L29P, R61W
notes: single-arm
In the case of B3, binding was characterised by a dissociation constant (Kd) of 5.64 nM. This Kd lies about 6.8-fold lower than the previous one.

B4: TR01H040-E22Hh/none-Hi-Kn010G3/TR01L009-k0 (antibody, human IgG1, kappa, L234A L235A, N297A)
heavy: B1 heavy
chain: B1 chain
light: B1 light with P28S, Q42L, A48S, R50Q, Y94G
notes: single-arm
As to B4, binding was put at a Kd of 35.6 nM.

B5: TR01H040-E22Hh/none-Hi-Kn010G3/L0238-k0 (antibody, human IgG1, kappa, L234A L235A, N297A)
heavy: B1 heavy
chain: B1 chain
light: B1 light with Q27E, L29P, R61S
notes: single-arm
In the case of B5, the Kd worked out at 2.91 nM.

B6: TR01H040-E22Hh/none-Hi-Kn010G3/L0234-k0 (antibody, human IgG1, kappa, L234A L235A, N297A)
heavy: B1 heavy
chain: B1 chain
light: B1 light with P28E, L29P, Y94G
notes: single-arm
The molecule B6 showed a dissociation constant Kd of 24 nM. This Kd is about 8.2-fold higher than that of the molecule before.

B7: TR01H040-E22Hh/none-Hi-Kn010G3/L0241-k0 (antibody, human IgG1, kappa, L234A L235A, N297A)
heavy: B1 heavy
chain: B1 chain
light: B1 light with Q27E, P28S, L29P, R61W
notes: single-arm
With B7, the Kd is 3.48 nM.

B8: TR01H040-E22Hh/none-Hi-Kn010G3/L0243-k0 (antibody, human IgG1, kappa, L234A L235A, N297A)
heavy: B1 heavy
chain: B1 chain
light: B1 light with Q27E, L29P, Y94G
notes: single-arm
B8 came in with a Kd of 24.6 nM.

B9: TR01H040-E22Hh/none-Hi-Kn010G3/L0240-k0 (antibody, human IgG1, kappa, L234A L235A, N297A)
heavy: B1 heavy
chain: B1 chain
light: B1 light with Q27E, P28S, L29P, R61S
notes: single-arm
B9: the Kd was 2.17 nM.

B10: TR01H040-E22Hh/none-Hi-Kn010G3/TR01L008-k0 (antibody, human IgG1, kappa, L234A L235A, N297A)
heavy: B1 heavy
chain: B1 chain
light: B1 light with R24Q, S25A, Q27E, P28S, Y94G
notes: single-arm
Molecule B10 showed a Kd of 29.3 nM.

B11: TR01H040-E22Hh/none-Hi-Kn010G3/L0228-k0 (antibody, human IgG1, kappa, L234A L235A, N297A)
heavy: B1 heavy
chain: B1 chain
light: B1 light with P28S, L29P, L38I, R61S, Y94V
notes: single-arm
Take B11: the affinity, expressed as Kd, was 16 nM.

B12: TR01H040-E22Hh/none-Hi-Kn010G3/L0235-k0 (antibody, human IgG1, kappa, L234A L235A, N297A)
heavy: B1 heavy
chain: B1 chain
light: B1 light with P28E, L29P, R61S
notes: single-arm
Consider B12, for which binding was put at a Kd of 2.81 nM.

B13: TR01H040-E22Hh/none-Hi-Kn010G3/L0222-k0 (antibody, human IgG1, kappa, L234A L235A, N297A)
heavy: B1 heavy
chain: B1 chain
light: B1 light with P28S, L29P, L38I, H39Q, R61S
notes: single-arm
Molecule B13 had a Kd of 46.5 nM. This Kd lies about 17-fold higher than the previous one.

B14: TR01H040-E22Hh/none-Hi-Kn010G3/L0233-k0 (antibody, human IgG1, kappa, L234A L235A, N297A)
heavy: B1 heavy
chain: B1 chain
light: B1 light with P28E, R61S, Y94G
notes: single-arm
As to B14, the Kd is 40.1 nM.

B15: TR01H040-E22Hh/none-Hi-Kn010G3/L0237-k0 (antibody, human IgG1, kappa, L234A L235A, N297A)
heavy: B1 heavy
chain: B1 chain
light: B1 light with P28E, L29P, L38I, R61S
notes: single-arm
Turning to B15, the equilibrium dissociation constant (Kd) is 10.2 nM.

B16: TR01H040-E22Hh/none-Hi-Kn010G3/L0239-k0 (antibody, human IgG1, kappa, L234A L235A, N297A)
heavy: B1 heavy
chain: B1 chain
light: B1 light with Q27E, P28S, L29P, Y94G
notes: single-arm
As for B16, the Kd came to 23.1 nM.

B17: TR01H040-E22Hh/none-Hi-Kn010G3/L0250-k0 (antibody, human IgG1, kappa, L234A L235A, N297A)
heavy: B1 heavy
chain: B1 chain
light: B1 light with S25P, P28S, L29P, L38I, H39Q, R61S, Y94I
notes: single-arm
Regarding B17, binding was put at a Kd of 21.5 nM.

B18: TR01H040-E22Hh/none-Hi-Kn010G3/L0223-k0 (antibody, human IgG1, kappa, L234A L235A, N297A)
heavy: B1 heavy
chain: B1 chain
light: B1 light with P28S, L29P, L38I, F60L, R61S
notes: single-arm
In turn, B18 had a Kd of 8.15 nM.

B19: TR01H040-E22Hh/none-Hi-Kn010G3/L0231-k0 (antibody, human IgG1, kappa, L234A L235A, N297A)
heavy: B1 heavy
chain: B1 chain
light: B1 light with P28S, L29P, L38I, R61S, V99W
notes: single-arm
The molecule B19 gave a Kd of 7.75 nM.

B20: TR01H040-E22Hh/none-Hi-Kn010G3/L0242-k0 (antibody, human IgG1, kappa, L234A L235A, N297A)
heavy: B1 heavy
chain: B1 chain
light: B1 light with Q27E, P28S, L29P, L38I, R61S
notes: single-arm
Regarding B20, binding was characterised by a dissociation constant (Kd) of 3.58 nM.

B21: TR01H040-E22Hh/none-Hi-Kn010G3/TR01L010-k0 (antibody, human IgG1, kappa, L234A L235A, N297A)
heavy: B1 heavy
chain: B1 chain
light: B1 light with P28S, Y94G, L109V, K112E
notes: single-arm
Turning to B21, the affinity, expressed as Kd, was 32.8 nM. This Kd is about 9.2-fold higher than that of the molecule before.

B22: TR01H040-E22Hh/none-Hi-Kn010G3/L0262-k0 (antibody, human IgG1, kappa, L234A L235A, N297A)
heavy: B1 heavy
chain: B1 chain
light: B1 light with L29P, R61S, Y94A
notes: single-arm
Take B22: the Kd stood at 18.1 nM. Compared with the last molecule, the Kd is about 1.8-fold lower.

B23: TR01H040-E22Hh/none-Hi-Kn010G3/L0224-k0 (antibody, human IgG1, kappa, L234A L235A, N297A)
heavy: B1 heavy
chain: B1 chain
light: B1 light with P28S, L29P, L38I, R61P
notes: single-arm
B23 came in with a Kd of 5.06 nM.

As usually defined, the Kd is the concentration at which binding is half-saturated. A lower Kd goes with a tighter complex.
